{"source": "patent US20190144550A1", "about": "(Pfizer, published 2019)", "binders": {"B1": {"name": "m62G7 (antibody, V domains shown)", "VH": "EVQLQQSGPELVKPGASVKISCKTSGYTFTDYTLHWVKQSHVKSLEWIGGIDPINGGTTYNQKFKGKATLTVDKSSSTAYMELRSLTSEDSAVYYCARGEAMDSWGQGTSVTVSS", "VL": "not shown", "notes": "Tested as murine-human chimeric antibody, captured by anti-human Fc; also called recombinant anti-EGFRvIII chimeric antibody m62G7"}, "B2": {"name": "h62G7-EQ/L6 (antibody, V domains shown)", "VH": "QVQLVQSGAEVKKPGASVKVSCKASGYTFTDYTLHWVRQAPGQGLEWMGGIWPITGGTTYNQKFKGRVTMTRDTSTSTVYMELSSLRSEDTAVYYCARGEAQGSWGQGTLVTVSS", "VL": "DVVMTQSPLSLPVTLGQPASISCKSSQSLLYSNGKTYLNWFQQRPGQSPRRLIYQVSKLDSGVPDRFSGSGSGTDFTLKISRVEAEDVGVYYCGQDTHFPLTFGGGTKVEIK", "notes": "Humanized, human IgG1 recombinant antibody; also called h62G7-L6/EQ"}, "B3": {"name": "h62G7-EQ/L1-DV (antibody, V domains shown)", "VH": "B2 VH", "VL": "B2 VL with G34D, L38T, Q55E, S61V", "notes": "Human IgG1"}, "B4": {"name": "h62G7-H14/L1-DV (antibody, V domains shown)", "VH": "B2 VH with Q102E", "VL": "B2 VL with G34D, L38T, Q55E, S61V", "notes": "Humanized, human IgG1 recombinant antibody"}, "B5": {"name": "h62G7-H14/L6 (antibody, V domains shown)", "VH": "B2 VH with Q102E", "VL": "B2 VL", "notes": "Human IgG1"}, "B6": {"name": "C6 EGFRvIII specific CAR (other)", "chain": "QVQLVQSGAEVKKPGSSVKVSCKASGDTFSSNAISWVRQAPGQGLEWMGVIIPIFGTADYAQKFQGRVTITADESTSTAYMELSSLRSEDTAVYYCARHTYHEYAGGYYGGAMDPWGQGTLVTVSSGGGGSGGGGSGGGGSGGGGSELQSVLTQPPSASGTPGQRVTISCSGSSSNIGSNYVYWYQQLPGTAPKILIYRNNQRPSGVPDRFSGSKSGTSASLAISGLRSEDEADYYCAAWDDNLSGWVFGTGTKLTVLTTTPAPRPPTPAPTIASQPLSLRPEACRPAAGGAVHTRGLDFACDIYIWAPLAGTCGVLLLSLVITLYCKRGRKKLLYIFKQPFMRPVQTTQEEDGCSCRFPEEEEGGCELRVKFSRSADAPAYQQGQNQLYNELNLGRREEYDVLDKRRGRDPEMGGKPRRKNPQEGLYNELQKDKMAEAYSEIGMKGERRRGKGHDGLYQGLSTATKDTYDALHMQALPPR", "notes": "Chimeric antigen receptor on primary human T cells; also called EGFRvIII specific clone C6 CAR"}}, "note": "Changes are numbered by the printed parent chain.", "data": [{"molecular_target": "T1, Monomeric 8-histidine tagged human EGFRvIII extracellular domain (human, UniProt P00533 298-645)", "T1 construct": "Analyte in all SPR assays; not shown: 8-histidine tag", "assay": "SPR, captured by anti-human Fc, 25 C", "source_text": "(§1) Anti-EGFRvII mouse (m) antibody, m62G7, generated from hybridomas was sequenced and subcloned into suitable vectors for expression as murine-human chimeric antibodies. The CDRs of mouse antibody m62G7 were grafted onto human framework and expressed as human IgG1 recombinant antibody, h62G7. Affinity variants of h62G7 were made by introducing mutations in the CDRs of the heavy and light chains. The affinities of recombinant anti-EGFRvIII chimeric antibody m62G7 and humanized h62G7 antibodies were measured on a surface plasmon resonance Biacore™ T200 biosensor equipped with a research-grade anti-human Fc coupled CM4 sensor chip (GE Healthcare Inc., Piscataway, N.J.). Anti-EGFRvII antibodies were then captured by anti-human Fc. Monomeric 8-histidine tagged human EGFRvIII extracellular domain was then injected as the analyte at 10-fold dilution series with top concentration at 1000 nM. Affinity of anti-EGFRvIII antibodies towards human EGFRvIII was measured at both 25° C. and 37° C.", "units": {"Kd": "nM", "koff": "s⁻¹", "kon": "M⁻¹ s⁻¹"}, "values": [{"binder": "B1", "Kd": 88.7, "koff": 0.064, "kon": 730000}, {"binder": "B2", "Kd": 43.8, "koff": 0.01, "kon": 240000}, {"binder": "B3", "Kd": 59.9, "kon": 200000}, {"binder": "B4", "Kd": 1090, "koff": 0.02, "kon": 18000}, {"binder": "B5", "Kd": 992, "koff": 0.013, "kon": 13000}]}, {"molecular_target": "T2, EGFR-mFc (human; mouse, UniProt P00533 25-645)", "T2 construct": "extracellular domain; Produced in HEK293 cells; also called recombinant EGFR-mFc; not shown: mouse IgG1-Fc domain", "assay": "flow cytometry, CAR T cells on Day 4 after transduction incubated with EGFR-mFc, then PE-labeled goat anti-mouse Fc", "source_text": "To determine target binding specificity of the CARs, recombinant proteins EGFRvII-mFc and EGFR-mFc, which comprise of the extracellular domain of either human EGFRvIII or human wild-type EGFR, respectively, fused with mouse IgG1-Fc domain, were produced in HEK293 cells. […]", "values": [{"binder": "B6", "binding result": "binds"}]}, {"molecular_target": "T1, Monomeric 8-histidine tagged human …", "assay": "SPR, captured by anti-human Fc, 25 C; 25 C", "units": {"koff": "s⁻¹"}, "values": [{"binder": "B3", "koff": 0.012}]}, {"molecular_target": "T3, 8-histidine tagged recombinant wild-type protein EGFRwt (UniProt P00533 25-645, limits assumed)", "T3 construct": "not shown: 8-histidine tag", "assay": "SPR, captured by anti-human Fc", "values": [{"binder": "B1", "binding result": "no binding (tested: 1000 nM)"}, {"binder": "B2", "binding result": "no binding (tested: 1000 nM)"}, {"binder": "B3", "binding result": "no binding (tested: 1000 nM)"}, {"binder": "B4", "binding result": "no binding (tested: 1000 nM)"}, {"binder": "B5", "binding result": "no binding (tested: 1000 nM)"}]}, {"molecular_target": "T1, Monomeric 8-histidine tagged human …", "assay": "SPR, captured by anti-human Fc, 37 C", "source_text": "as §1", "units": {"Kd": "nM", "koff": "s⁻¹", "kon": "M⁻¹ s⁻¹"}, "values": [{"binder": "B1", "Kd": 207, "koff": 0.17, "kon": 800000}, {"binder": "B2", "Kd": 113, "koff": 0.074, "kon": 660000}, {"binder": "B3", "Kd": 186, "koff": 0.069, "kon": 370000}, {"binder": "B4", "Kd": 1540, "koff": 0.1, "kon": 66000}, {"binder": "B5", "Kd": 1580, "koff": 0.068, "kon": 43000}]}]}
